Experimental data reported in patent publication US20220025069A1 (Hoffmann-La Roche, published 2022).
Where two headings read alike, the source gives them in different places. Values belong to the binder of their own block, whether it stands above or below them.

Assays:
[1] = target: T1, human Fibroblast Activation Protein (FAP), cell-surface-expressed on NIH/3T3-huFAP clone 19 cells (human, UniProt Q12884 1-760); assay: flow cytometry, NIH/3T3-huFAP clone 19 cells, gMFI curve
T1 construct: also called FAP-expressing cells
Protocol: (§1) Plates were incubated for 30 minutes at 4° C. and washed once with 200 μL, 4° C. cold DPBS buffer. […] Cells were washed twice with 200 μL 4° C. DPBS buffer and then resuspended in 50 μL/well DPBS containing 1% Formaldehyde for fixation. The same or the next day cells were resuspended in 100 μL FACS-buffer and acquired using MACSQuant Analyzer 10 (Miltenyi Biotec) or Canto II (BD).

[2] = target: T2, human 4-1BB (CD137), cell-surface-expressed on Jurkat-hu4-1BB-NFkB-luc2 reporter cell line (human, UniProt Q07011 24-186); assay: flow cytometry, Jurkat-hu4-1BB-NFkB-luc2 cells, PE anti-human Fc detection
T2 construct: Reporter cell line bought from Promega; also called cell-expressed human 4-1BB
Protocol: (§2) For binding to cell-surface-expressed human 4-1BB (CD137) Jurkat-hu4-1BB-NFκB-luc2 reporter cell line (Promega, Germany) was used. […] Plates were incubated for 30 minutes at 4° C. and washed once with 200 μL 4° C. cold DPBS buffer. […] Cells were washed twice with 200 μL 4° C. FACS buffer and then resuspended in 50 μL/well DPBS containing 1% Formaldehyde for fixation. The same or the next day cells were resuspended in 100 μL FACS-buffer and acquired using MACSQuant Analyzer 10 (Miltenyi Biotec) or Cantoll (BD).

[3] = target: T2, human 4-1BB (CD137), …; assay: flow cytometry, Jurkat-hu4-1BB-NFkB-luc2 cells, gMFI curve
Protocol: as §2

[4] = target: T1, human Fibroblast Activation Protein …; assay: flow cytometry, NIH/3T3-huFAP clone 19 cells, PE anti-human Fc detection
Protocol: as §1

[5] = target: T2, human 4-1BB (CD137), …; assay: cell-based or functional assay; design: AUC of activation curve, NFκB-luciferase in Jurkat-hu4-1BB-NFκB-luc2, crosslinking by WM-266-4 cells: unit not given beside the values
[6] = target: T2, human 4-1BB (CD137), …; assay: cell-based or functional assay
[7] = target: T2, human 4-1BB (CD137), …; assay: flow cytometry, Jurkat-hu4-1BB-NFkB-luc2 cells, gMFI curve; remark: listed apart in the source
Protocol: (§3) For binding to cell-surface-expressed human 4-1BB (CD137) Jurkat-hu4-1BB-NFkB-luc2 reporter cell line (Promega, Germany) was used. […] Plates were incubated for 30 minutes at 4° C. and washed once with 200 μL 4° C. cold DPBS buffer. […] Cells were washed twice with 200 μL 4° C. FACS buffer and then resuspended in 50 DPBS containing 1% Formaldehyde for fixation.

[8] = target: T2, human 4-1BB (CD137), …; assay: cell-based or functional assay; design: unit not given beside the values
[9] = target: T2, human 4-1BB (CD137), …; assay: cell-based or functional assay; remark: listed apart in the source
[10] = target: T2, human 4-1BB (CD137), …; assay: flow cytometry, Jurkat-hu4-1BB-NFkB-luc2 cells, PE anti-human Fc detection; remark: listed apart in the source
Protocol: as §3

Area under the curve (AUC) of binding curve [1]: 32500
EC50 [2]: 2.39 nM
Area under the curve (AUC) of binding curve [3]: 681
EC50 [4]: 2.88 nM
AUC of activation curve, NFκB-luciferase in Jurkat-hu4-1BB-NFκB-luc2, crosslinking by NIH/3T3-huFAP clone 19 cells [5]: 93200
AUC of activation curve, NFκB-luciferase in Jurkat-hu4-1BB-NFκB-luc2, crosslinking by WM-266-4 cells [5]: 37400
EC50 of activation curve, NFκB-luciferase in Jurkat-hu4-1BB-NFκB-luc2, crosslinking by NIH/3T3-huFAP clone 19 cells [6]: 0.02 nM
EC50 of activation curve, NFκB-luciferase in Jurkat-hu4-1BB-NFκB-luc2, crosslinking by WM-266-4 cells [6]: 0.07 nM
B1: bispecific, monovalent 1+2 anti-FAP, anti-4-1BB lipocalin huIgG1 PGLALA antigen binding molecule (bispecific antibody)
heavy 1: DKTHTCPPCPAPEAAGGPSVFLFPPKPKDTLMISRTPEVTCVVVDVSHEDPEVKFNWYVDGVEVHNAKTKPREEQYNSTYRVVSVLTVLHQDWLNGKEYKCKVSNKALGAPIEKTISKAKGQPREPQVCTLPPSRDELTKNQVSLSCAVKGFYPSDIAVEWESNGQPENNYKTTPPVLDSDGSFFLVSKLTVDKSRWQQGNVFSCSVMHEALHNHYTQKSLSLSPGGGGGSGGGGSGGGGSQDSTSDLIPAPPLSKVPLQQNFQDNQFHGKWYVVGQAGNIRLREDKDPIKMMATIYELKEDKSYDVTMVKFDDKKCMYDIWTFVPGSQPGEFTLGKIKSFPGHTSSLVRVVSTNYNQHAMVFFKFVFQNREEFYITLYGRTKELTSELKENFIRFSKSLGLPENHIVFPVPIDQCIDG
heavy 2: not shown
light: EIVLTQSPGTLSLSPGERATLSCRASQSVTSSYLAWYQQKPGQAPRLLINVGSRRATGIPDRFSGSGSGTDFTLTISRLEPEDFAVYYCQQGIMLPPTFGQGTKVEIKRTVAAPSVFIFPPSDEQLKSGTASVVCLLNNFYPREAKVQWKVDNALQSGNSQESVTEQDSKDSTYSLSSTLTLSKADYEKHKVYACEVTHQGLSSPVTKSFNRGEC
notes: also called FAP (4B9) x 4-1BB lipocalin huIgG1 PG LALA 1+2; 1+2 FAP(4B9) x 4-1BB lipocalin huIgG1 PGLALA

Area under the curve (AUC) of binding curve [1]: 21000
EC50 [2]: 1.72 nM
Area under the curve (AUC) of binding curve [3]: 694
EC50 [4]: 1.19 nM
AUC of activation curve, NFκB-luciferase in Jurkat-hu4-1BB-NFκB-luc2, crosslinking by NIH/3T3-huFAP clone 19 cells [5]: 55200
AUC of activation curve, NFκB-luciferase in Jurkat-hu4-1BB-NFκB-luc2, crosslinking by WM-266-4 cells [5]: 11700
EC50 of activation curve, NFκB-luciferase in Jurkat-hu4-1BB-NFκB-luc2, crosslinking by NIH/3T3-huFAP clone 19 cells [6]: 0.12 nM
EC50 of activation curve, NFκB-luciferase in Jurkat-hu4-1BB-NFκB-luc2, crosslinking by WM-266-4 cells [6]: 0.02 nM
B2: 2+2 FAP(4B9) x 4-1BB lipocalin huIgG4 SP molecule (bispecific antibody)
heavy: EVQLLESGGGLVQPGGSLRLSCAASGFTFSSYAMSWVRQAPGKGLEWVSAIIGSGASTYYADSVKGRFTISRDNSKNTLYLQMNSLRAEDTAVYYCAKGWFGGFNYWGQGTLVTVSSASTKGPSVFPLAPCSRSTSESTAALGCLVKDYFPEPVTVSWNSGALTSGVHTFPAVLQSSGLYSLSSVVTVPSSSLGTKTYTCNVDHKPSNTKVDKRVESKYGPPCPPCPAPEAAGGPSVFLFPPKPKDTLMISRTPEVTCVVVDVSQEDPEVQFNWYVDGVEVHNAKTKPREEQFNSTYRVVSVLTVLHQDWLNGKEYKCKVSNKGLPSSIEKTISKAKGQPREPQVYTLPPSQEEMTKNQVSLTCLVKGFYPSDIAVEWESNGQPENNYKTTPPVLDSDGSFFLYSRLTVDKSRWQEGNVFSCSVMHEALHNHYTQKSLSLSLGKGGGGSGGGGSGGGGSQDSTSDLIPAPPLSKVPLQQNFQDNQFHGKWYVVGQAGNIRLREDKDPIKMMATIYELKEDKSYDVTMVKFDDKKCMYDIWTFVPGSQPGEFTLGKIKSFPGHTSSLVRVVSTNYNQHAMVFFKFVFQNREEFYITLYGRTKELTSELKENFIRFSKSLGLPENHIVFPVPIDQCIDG
light: B1 light
notes: Comparison molecule; also called FAP (4B9) x 4-1BB lipocalin huIgG4 SP 2+2; FAP (4B9) anti-4-1BB lipocalin huIgG4 SP 2+2

Area under the curve (AUC) of binding curve [1]: 28800
EC50 [2]: 2.09 nM
Area under the curve (AUC) of binding curve [3]: 746
EC50 [4]: 2.01 nM
AUC of activation curve, NFκB-luciferase in Jurkat-hu4-1BB-NFκB-luc2, crosslinking by NIH/3T3-huFAP clone 19 cells [5]: 65500
AUC of activation curve, NFκB-luciferase in Jurkat-hu4-1BB-NFκB-luc2, crosslinking by WM-266-4 cells [5]: 20400
EC50 of activation curve, NFκB-luciferase in Jurkat-hu4-1BB-NFκB-luc2, crosslinking by NIH/3T3-huFAP clone 19 cells [6]: 0.04 nM
EC50 of activation curve, NFκB-luciferase in Jurkat-hu4-1BB-NFκB-luc2, crosslinking by WM-266-4 cells [6]: 0.02 nM
B3: bispecific, bivalent 2+2 anti-FAP, anti-4-1BB lipocalin huIgG1 PGLALA antigen binding molecule (bispecific antibody)
heavy: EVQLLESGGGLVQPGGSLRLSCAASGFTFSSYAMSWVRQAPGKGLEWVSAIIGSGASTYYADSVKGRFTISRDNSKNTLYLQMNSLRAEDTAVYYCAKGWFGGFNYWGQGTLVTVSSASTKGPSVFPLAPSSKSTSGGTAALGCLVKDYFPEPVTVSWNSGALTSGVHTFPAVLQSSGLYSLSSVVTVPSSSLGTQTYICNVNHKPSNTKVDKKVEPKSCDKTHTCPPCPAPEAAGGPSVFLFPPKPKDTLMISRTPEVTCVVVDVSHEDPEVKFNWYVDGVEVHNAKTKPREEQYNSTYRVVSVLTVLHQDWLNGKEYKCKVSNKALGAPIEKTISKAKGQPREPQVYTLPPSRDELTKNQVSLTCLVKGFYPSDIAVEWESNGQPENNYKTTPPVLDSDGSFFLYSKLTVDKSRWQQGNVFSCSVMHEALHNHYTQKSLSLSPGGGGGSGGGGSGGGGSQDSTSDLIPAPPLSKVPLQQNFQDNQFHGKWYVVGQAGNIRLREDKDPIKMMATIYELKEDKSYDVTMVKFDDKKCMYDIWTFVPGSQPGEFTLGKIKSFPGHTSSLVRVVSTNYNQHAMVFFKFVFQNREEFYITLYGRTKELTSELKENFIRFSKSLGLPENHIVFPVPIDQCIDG
light: B1 light
notes: also called FAP (4B9) x 4-1BB lipocalin huIgG1 PG LALA 2+2; 2+2 FAP(4B9) x 4-1BB lipocalin huIgG1 PGLALA

Area under the curve (AUC) of binding curve [7]: 2100
AUC of activation curve, NFκB-luciferase in Jurkat-hu4-1BB-NFκB-luc2, crosslinking by KPL4 cells [8]: 11400
AUC of activation curve, NFκB-luciferase in Jurkat-hu4-1BB-NFκB-luc2, crosslinking by NCI-N87 cells [8]: 12100
AUC of activation curve, NFκB-luciferase in Jurkat-hu4-1BB-NFκB-luc2, crosslinking by SK-Br3 cells [8]: 3960
EC50 of activation curve, NFκB-luciferase in Jurkat-hu4-1BB-NFκB-luc2, crosslinking by KPL4 cells [9]: 0.19 nM
EC50 of activation curve, NFκB-luciferase in Jurkat-hu4-1BB-NFκB-luc2, crosslinking by NCI-N87 cells [9]: 0.15 nM
EC50 of activation curve, NFκB-luciferase in Jurkat-hu4-1BB-NFκB-luc2, crosslinking by SK-Br3 cells [9]: 0.33 nM
EC50 [10]: 6.95 nM
B4: bispecific, monovalent 1+2 anti-HER2, anti-4-1BB lipocalin huIgG1 PGLALA antigen binding molecule (bispecific antibody)
heavy 1: B1 heavy 1
heavy 2: not shown
light: not shown
notes: also called HER2 (TRAS) x 4-1BB lipocalin huIgG1 PG LALA 1+2; 1+2 HER2 x 4-1BB lipocalin huIgG1 PGLALA

Area under the curve (AUC) of binding curve [1]: 30400
Area under the curve (AUC) of binding curve [3]: 75
EC50 [4]: 1.59 nM
AUC of activation curve, NFκB-luciferase in Jurkat-hu4-1BB-NFκB-luc2, crosslinking by NIH/3T3-huFAP clone 19 cells [5]: 521
AUC of activation curve, NFκB-luciferase in Jurkat-hu4-1BB-NFκB-luc2, crosslinking by WM-266-4 cells [5]: 384
B5: FAP (4B9) huIgG1 PG LALA antibody (antibody, V domains shown)
VH: EVQLLESGGGLVQPGGSLRLSCAASGFTFSSYAMSWVRQAPGKGLEWVSAIIGSGASTYYADSVKGRFTISRDNSKNTLYLQMNSLRAEDTAVYYCAKGWFGGFNYWGQGTLVTVSS
VL: EIVLTQSPGTLSLSPGERATLSCRASQSVTSSYLAWYQQKPGQAPRLLINVGSRRATGIPDRFSGSGSGTDFTLTISRLEPEDFAVYYCQQGIMLPPTFGQGTKVEIK
notes: the control is a human IgG1 with P329G, L234A, L235A (PG LALA)
